The target of experiment [1] is T1, human TIGIT fused to a beta galactosidase portion, on YTS cells (YTS_hTIGIT/hGrb2) (human, UniProt Q495A1 22-244).
T1 sequence (looked up): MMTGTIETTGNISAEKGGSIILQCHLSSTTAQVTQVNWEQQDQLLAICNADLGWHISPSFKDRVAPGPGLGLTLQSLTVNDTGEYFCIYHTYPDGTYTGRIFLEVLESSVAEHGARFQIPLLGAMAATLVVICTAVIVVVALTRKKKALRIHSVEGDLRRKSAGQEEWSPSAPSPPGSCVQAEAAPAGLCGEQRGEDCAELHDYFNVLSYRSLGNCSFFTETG
As to the kind of experiment: cell-based or functional assay.

Experiment [2] concerns the target T2, His-tagged recombinant Human TIGIT (human, UniProt Q495A1 22-141).
T2 construct: also called VSIG9; VSTM3; not shown: His tag
T2 sequence (looked up): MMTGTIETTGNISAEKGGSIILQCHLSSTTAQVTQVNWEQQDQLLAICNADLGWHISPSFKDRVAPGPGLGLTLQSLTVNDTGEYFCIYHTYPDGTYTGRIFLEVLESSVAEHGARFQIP
In words: ELISA, coated His-tagged human TIGIT. The procedure: (§1) Binding affinities for antigen binding to anti-TIGIT monoclonal antibodies were determined by ELISA. […] Antibodies to be tested were diluted to 1 μM in PBS buffer containing 1% BSA and diluted 3-fold in a 10-point curve. […] Detection of the secondary antibody was determined using streptavidin-HRP and TMB reagent. All assays were performed at room temperature. Curve-fitting software was used to determine the EC₅₀ for each antibody.

The target of experiment [3] is T3, His-tagged recombinant Mouse TIGIT (mouse, UniProt P86176 29-148, limits assumed).
T3 construct: not shown: His tag
T3 sequence (looked up): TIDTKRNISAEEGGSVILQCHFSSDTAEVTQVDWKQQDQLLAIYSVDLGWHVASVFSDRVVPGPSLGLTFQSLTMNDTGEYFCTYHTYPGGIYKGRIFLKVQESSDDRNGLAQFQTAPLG
In words: ELISA, coated His-tagged mouse TIGIT. As for the experimental part:
as §1

A value given as a limit tells only on which side of the number the result lay.

B1: Ab1i1 (antibody, V domains shown)
VH: EVQLLESGGGLVQPGGSLRLSCAASGFTFSSYAMHWVRQAPGKGLEWVSGISSNGGSTSYADSVKGRFTISRDNSKNTLYLQMNSLRAEDTAVYYCARVPYSVWIDYWGQGTLVTVSS
VL: not shown
In the case of B1, in experiment [1], the “YTS_hTIGI/hGrbs_EFC_Agonism, 221_WT” value came out at 0.0091 µM and the “YTS_hTIGI/hGrbs_EFC_Antagonism, 221_hPVR/ICAM” value is over 1 µM.

B2: Ab1i3 (antibody, V domains shown)
VH: EVQLLESGGGLVQPGGSLRLSCAASGFTFSSYAMHWVRQAPGKGLEWVSGISSNGGSTSYADSVKGRFTISRDNSKNTLYLQMNSLRAEDTAVYYCARVPYSVWIDYWGQGTLVTVSS
VL: not shown
As for B2, in experiment [1], the “YTS_hTIGI/hGrbs_EFC_Agonism, 221_WT” value was over 1 µM and the “YTS_hTIGI/hGrbs_EFC_Antagonism, 221_hPVR/ICAM” value worked out at 0.172 µM.

B3: Ab169 (Fab, V domains shown)
VH: EVQLLESGGGLVQPGGSLRLSCAASGFTFSSYSMHWVRQAPGKGLEWVASIKSDTSSTYYADSVKGRFTISRDNSKNTLYLQMNSLRAEDTAVYYCARVPYDYWIDYWGQGTLVTVSS
VL: not shown
notes: ARV set
On to B3, for which the EC50 is 153 nM in experiment [2] and 110 nM in experiment [3].

B4: Ab145 (Fab, V domains shown)
VH: EVQLLESGGGLVQPGGSLRLSCAASGFTFSSYAMSWVRQAPGKGLEWVASISSSTGYTSYADSVKGRFTISRDNSKNTLYLQMNSLRAEDTAVYYCAREPYSYWLDYWGQGTLVTVSS
VL: not shown
notes: ARE set
As to B4, the EC50 was found to be 232 nM in experiment [2] and 50.4 nM in experiment [3].

B5: Ab197 (Fab, V domains shown)
VH: EVQLLESGGGLVQPGGSLRLSCAASGFTFSSYSMHWVRQAPGKGLEWVAYIKGSAGSTSYADSVKGRFTISRDNSKNTLYLQMNSLRAEDTAVYYCARVPYGVWMDYWGQGTLVTVSS
VL: not shown
notes: ARV set
B5: the EC50 is 11.1 nM in experiment [2] and 81.4 nM in experiment [3].

B6: Ab185 (Fab, V domains shown)
VH: EVQLLESGGGLVQPGGSLRLSCAASGFTFSSYAMSWVRQAPGKGLEWVAAIKSNAGSSYYADSVKGRFTISRDNSKNTLYLQMNSLRAEDTAVYYCAREPYSYWLDYWGQGTLVTVSS
VL: not shown
notes: ARE set
For the molecule B6, the EC50 in experiment [2] stood at 81.7 nM; in experiment [3] it was 101 nM.

B7: Ab153 (Fab, V domains shown)
VH: EVQLLESGGGLVQPGGSLRLSCAASGFTFSSYSMHWVRQAPGKGLEWVSSINSNAGTISYADSVKGRFTISRDNSKNTLYLQMNSLRAEDTAVYYCARVPYDYWIDYWGQGTLVTVSS
VL: not shown
notes: ARV set
In the case of B7, the results for the EC50 in experiment [2] and in experiment [3] were 87.7 nM and 13.9 nM, respectively.

B8: Ab175 (Fab, V domains shown)
VH: EVQLLESGGGLVQPGGSLRLSCAASGFTFSSYSMHWVRQAPGKGLEWVSAINSNAGSSSYADSVKGRFTISRDNSKNTLYLQMNSLRAEDTAVYYCARVPYGVWMDYWGQGTLVTVSS
VL: not shown
notes: ARV set
B8: the EC50 in experiment [2] was 5.2 nM; in experiment [3], 39.3 nM.

B9: Ab148 (Fab, V domains shown)
VH: EVQLLESGGGLVQPGGSLRLSCAASGFTFSSYSMSWVRQAPGKGLEWVASIKGSAGYIYYADSVKGRFTISRDNSKNTLYLQMNSLRAEDTAVYYCARVPYDYWMDYWGQGTLVTVSS
VL: not shown
notes: ARV set
Consider B9, for which the EC50 came to 168 nM in experiment [2] and 16.4 nM in experiment [3].

B10: Ab72 (Fab, V domains shown)
VH: EVQLLESGGGLVQPGGSLRLSCAASGFTFSSYSMHWVRQAPGKGLEWVAAIKSDAGTSGYADSVKGRFTISRDNSKNTLYLQMNSLRAEDTAVYYCARVPYDYWIDYWGQGTLVTVSS
VL: not shown
notes: ARV set
As to B10, the EC50 in experiment [2] came out at 81.7 nM; in experiment [3], 235 nM.

B11: Ab41 (Fab, V domains shown)
VH: EVQLLESGGGLVQPGGSLRLSCAASGFTFSSYSMHWVRQAPGKGLEWVASIKSSGGYISYADSVKGRFTISRDNSKNTLYLQMNSLRAEDTAVYYCARVPYDYWMDYWGQGTLVTVSS
VL: not shown
notes: ARV set
As to B11, the EC50 worked out at 11 nM in experiment [2] and 9.5 nM in experiment [3].

B12: Ab165 (Fab, V domains shown)
VH: EVQLLESGGGLVQPGGSLRLSCAASGFTFSSYAMSWVRQAPGKGLEWVAAIKSSTGTIYYADSVKGRFTISRDNSKNTLYLQMNSLRAEDTAVYYCAREPYSVWLDYWGQGTLVTVSS
VL: not shown
notes: ARE set
Turning to B12, the EC50 in experiment [2] came out at 12.8 nM; in experiment [3], 228 nM.

B13: Ab49 (Fab, V domains shown)
VH: EVQLLESGGGLVQPGGSLRLSCAASGFTFSSYSMHWVRQAPGKGLEWVASIKSSGGYKSYADSVKGRFTISRDNSKNTLYLQMNSLRAEDTAVYYCARGPYDVWIDYWGQGTLVTVSS
VL: not shown
notes: ARG set
Turning to B13, the results for the EC50 in experiment [2] and in experiment [3] were 27.6 nM and 58 nM, respectively.

B14: Ab124 (Fab, V domains shown)
VH: EVQLLESGGGLVQPGGSLRLSCAASGFTFSSYSMHWVRQAPGKGLEWVASIKGSASYSYYADSVKGRFTISRDNSKNTLYLQMNSLRAEDTAVYYCARVPYDYWMDYWGQGTLVTVSS
VL: not shown
notes: ARV set
With B14, the EC50 in experiment [2] is 34.3 nM; in experiment [3], 14.1 nM.

B15: Ab95 (Fab, V domains shown)
VH: EVQLLESGGGLVQPGGSLRLSCAASGFTFSSYAMSWVRQAPGKGLEWVASIKSSTGYIGYADSVKGRFTISRDNSKNTLYLQMNSLRAEDTAVYYCAREPYSYWLDYWGQGTLVTVSS
VL: not shown
notes: ARE set
Take B15: the EC50 in experiment [2] is 357 nM; in experiment [3], 100 nM.

B16: Ab32 (Fab, V domains shown)
VH: EVQLLESGGGLVQPGGSLRLSCAASGFTFSSYSMHWVRQAPGKGLEWVANINSNGGNTGYADSVKGRFTISRDNSKNTLYLQMNSLRAEDTAVYYCARVPYDVWMDYWGQGTLVTVSS
VL: not shown
notes: ARV set
As for B16, the figures for the EC50 in experiment [2] and in experiment [3] were 4.3 nM and 14.7 nM, respectively.

B17: Ab76 (Fab, V domains shown)
VH: EVQLLESGGGLVQPGGSLRLSCAASGFTFDSYSMHWVRQAPGKGLEWVSAISGSGGSTYYADSVKGRFTISRDNSKNTLYLQMNSLRAEDTAVYYCARVPYSVWIDYWGQGTLVTVSS
VL: not shown
notes: ARV set
Regarding B17, the EC50 in experiment [2] turned out to be 68.1 nM; in experiment [3] it was 65.7 nM.

B18: Ab23 (Fab, V domains shown)
VH: EVQLLESGGGLVQPGGSLRLSCAASGFTFSSYAMSWVRQAPGKGLEWVARINSDSSNTYYADSVKGRFTISRDNSKNTLYLQMNSLRAEDTAVYYCAREPYSYWLDYWGQGTLVTVSS
VL: not shown
notes: ARE set
As for B18, the EC50 was 289 nM in experiment [2] and 74.4 nM in experiment [3].

B19: Ab74 (Fab, V domains shown)
VH: EVQLLESGGGLVQPGGSLRLSCAASGFTFSSYSMHWVRQAPGKGLEWVASISSNAGTTGYADSVKGRFTISRDNSKNTLYLQMNSLRAEDTAVYYCARVPYDYWIDYWGQGTLVTVSS
VL: not shown
notes: ARV set
Consider B19, for which the EC50 in experiment [2] was 177 nM; in experiment [3], 41.9 nM.

B20: Ab47 (Fab, V domains shown)
VH: EVQLLESGGGLVQPGGSLRLSCAASGFTFSSYSMNWVRQAPGKGLEWVASIKSSSSYTSYADSVKGRFTISRDNSKNTLYLQMNSLRAEDTAVYYCARGPYDTWLDYWGQGTLVTVSS
VL: not shown
notes: ARG set
On to B20, for which the EC50 is 34.9 nM in experiment [2] and 361 nM in experiment [3].

B21: Ab157 (Fab, V domains shown)
VH: EVQLLESGGGLVQPGGSLRLSCAASGFTFSSYSMNWVRQAPGKGLEWVASINSNAGSTYYADSVKGRFTISRDNSKNTLYLQMNSLRAEDTAVYYCARVPYDYWMDYWGQGTLVTVSS
VL: not shown
notes: ARV set
As to B21, the results for the EC50 in experiment [2] and in experiment [3] were 165 nM and 116 nM, respectively.

B22: Ab46 (Fab, V domains shown)
VH: EVQLLESGGGLVQPGGSLRLSCAASGFTFSSYSMHWVRQAPGKGLEWVAGIWSSGGTTSYADSVKGRFTISRDNSKNTLYLQMNSLRAEDTAVYYCARVPYGVWMDYWGQGTLVTVSS
VL: not shown
notes: ARV set
B22: the EC50 was 8.2 nM in experiment [2] and 95 nM in experiment [3].

B23: Ab131 (Fab, V domains shown)
VH: EVQLLESGGGLVQPGGSLRLSCAASGFTFSSYAMSWVRQAPGKGLEWVSDIKSSAGSTSYADSVKGRFTISRDNSKNTLYLQMNSLRAEDTAVYYCARVPYSVWIDYWGQGTLVTVSS
VL: not shown
notes: ARV set
With B23, the 50% effective concentration (EC50) in experiment [2] was 7.2 nM; in experiment [3] it was 331 nM.

B24: Ab19 (Fab, V domains shown)
VH: EVQLLESGGGLVQPGGSLRLSCAASGFTFSSYSMSWVRQAPGKGLEWVANIKSNSGYTYYADSVKGRFTISRDNSKNTLYLQMNSLRAEDTAVYYCAREPYSVWLDYWGQGTLVTVSS
VL: not shown
notes: ARE set
B24: the concentration giving a half-maximal response (EC50) was determined as 19.8 nM in experiment [2] and 64.8 nM in experiment [3].

What is called EC50 is the midpoint of the concentration-response curve.

The record behind these values is patent US20200339678A1 (RIGEL PHARMACEUTICALS, published 2020).
